The values below come from article PMC9779650 (2022).

In assay [1] the target is T1, SARS-CoV-2 spike RBD-His (wildtype, WA1/2020) (SARS-CoV-2, UniProt P0DTC2 319-541). Nature of the assay: BLI.
Assay [2] deals with T1, SARS-CoV-2 spike RBD-His (wildtype, …). Description: BLI. The source holds these as a separate data set. In general terms: BLI is a label-free optical method that tracks binding on a fibre tip over time.

B1: P4A2 monoclonal antibody (antibody, V domains shown)
VH: QVQLQQSGAELVKPGASVKLSCKASGFTFTRYSIYWMKQRPGQGLEWIGEINPSTGDTNFNEKFKSKATLTVDKSSTTAYMQLSSLTSEDSAVYYCTRSTGYWGQGTLVTVSA
VL: DIVLTQSPASLAVSLGQRATISCRASESVEYHGTILMQWFQQKPGQPPRLLIYAASNVDSGVPARFSGSGSGTDLSLNIHPVEEDDIAMYFCQQSRKVPYTFGGGTKLEIK
For orientation: Kd means the free concentration of one partner at which half of the binding sites on the other are occupied at equilibrium, for simple one-to-one binding. The low end stands for a tighter complex, the high end for a looser complex. Usually koff stands for the first-order rate constant of dissociation. Lower therefore signals slow dissociation. Take B1: the Kd in assay [1] was below 1 pM. For the same molecule, the koff in assay [2] is below 1e-07 s⁻¹.
